# From US20260274985A1 (MYTHIC THERAPEUTICS, published 2026)
# T1: TROP2 on TROP2-positive NCI-H1975 cells (human, UniProt P09758 27-323)
# T1 sequence: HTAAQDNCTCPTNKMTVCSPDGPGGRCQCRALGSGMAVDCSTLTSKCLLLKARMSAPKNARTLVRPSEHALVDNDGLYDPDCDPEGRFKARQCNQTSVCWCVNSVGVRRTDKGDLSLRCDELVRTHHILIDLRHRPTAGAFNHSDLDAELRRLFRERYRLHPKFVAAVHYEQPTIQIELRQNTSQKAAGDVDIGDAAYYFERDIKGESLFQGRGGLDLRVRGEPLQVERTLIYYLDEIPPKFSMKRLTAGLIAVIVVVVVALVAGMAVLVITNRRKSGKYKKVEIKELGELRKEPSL
# T2: Human TROP2 Protein, His Tag (Acro Biosystems) (human, UniProt P09758 27-274)
# T2 construct: Bought antigen used at 50 nM in the Octet screen; also called TACSTD2; not shown: His tag
# T2 sequence (looked up): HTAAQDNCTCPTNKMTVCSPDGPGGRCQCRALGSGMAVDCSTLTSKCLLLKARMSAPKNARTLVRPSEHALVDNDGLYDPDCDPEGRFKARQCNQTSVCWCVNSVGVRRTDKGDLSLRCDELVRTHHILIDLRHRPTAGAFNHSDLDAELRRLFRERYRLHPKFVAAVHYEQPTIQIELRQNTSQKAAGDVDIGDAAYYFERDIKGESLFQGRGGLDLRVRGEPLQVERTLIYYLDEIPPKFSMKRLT
# Molecular target: T1, TROP2 on TROP2-positive NCI-H1975 cells
# Experiment: cell-based or functional assay
row,Binder,FOW H1975 (10 nM) [fold over parent antibody]
1,"MYT13288 (antibody, V domains shown) VH: QVQLQESGPGLVKPSETLSLTCTVSGGSISSYGVHWIRQPPGKGLEWIGVIWTSGVTDYNSALMGRVTISVDTSKNQFSLKLSSVTAADTAVYYCARDGDYHRYTMDYWGQGTLVTVSS VL: DIVMTQSPDSLAVSLGERATINCRASKSVSTSGYSYMHWYQQKPGQPPKLLIYLASNLESGVPDRFSGSGSGTDFTLTISSLQAEDVAVYYCHHSRELPYTFGQGTKLEIK",1.15
2,"MYT13446 (antibody, V domains shown) VH: QVQLQESGPGLVKPSETLSLTCTVSGGSISSYGVHWIRQPPGKGLEWIGVIWTSGVTDYNSALMGRVTISVDTSKNQFSLKLSSVTAADTAVYYCARDGDYDHYTMDYWGQGTLVTVSS VL: DIVMTQSPDSLAVSLGERATINCRASKSVSTSGYSYMHWYQQKPGQPPKLLIYLASNLHSGVPDRFSGSGSGTDFTLTISSLQAEDVAVYYCQHSRELPYHFGQGTKLEIK",1.09

# Molecular target: T2, Human TROP2 Protein, His Tag (Acro …)
# Experiment: BLI (Octet) [1/2]
# Procedure: After allowing for four days of protein expression, cell culture supernatants were collected, quantified by SDS-PAGE analysis (DNS), and the pH dependence of the variant was evaluated using biolayer interferometry (BLI) on an Octet RED 96e instrument. Briefly, cell culture supernatants were diluted based on qualitative expression level of the variant determined by visual examination of SDS-PAGE gels, 5 μL of cell culture supernatant was diluted into 195 μL of 1×PBST, pH 7.4 for high expressors, 25 μL of cell culture supernatant was diluted into 175 μL of 1×PBST, pH 7.4 for medium expressors and 100 μL of cell culture supernatant was diluted into 100 μL of 1×PBST, pH 7.4 for low expressors for loading onto the sensor tips. The resulting diluted supernatants were then captured on an anti-human Fc sensor (Forte Bio). A baseline was established using 1×PBST (50 mM Potassium Phosphate Buffer+150 mM NaCl+0.05% Tween 20) pH 7.4, and the sensor was associated with 50 nM of TROP2 (Human TROP2 Protein, His Tag, Acro Biosystems) in 1×PBST pH 7.4 for 120 sec to generate an association curve. In the dissociation phase, the antibody-antigen complex on the sensor was exposed to 1×PBST pH 7.4 or pH 5.4, for 300 sec. Association and dissociation phase curves were examined for the starting ABPC antibody (with no substitutions) and each corresponding antibody variant at pH 5.4 and pH 7.4 to inform on two criteria: a) enhanced dissociation (i.e., higher koff values) at pH 5.4 due to histidine or alanine substitution compared to the starting ABPC, (with no substitutions), and b) reduced dissociation at pH 7.4 (i.e., lower koff values) compared to pH 5.4 in the antibody variant itself and with the starting ABPC (with no substitutions). […] It was also noted that while some mutations obliterated TROP2 binding, others were tolerated with little or n change in TROP2 binding kinetics.
row,Binder,binding result
1,"MYT11705 (antibody, V domains shown, hu7E6SVG variant, His at HCV position 26 (H1 01); screened as IgG in Expi293 supernatant) VH: QVQLQESGPGLVKPSETLSLTCTVSHGSISSYGVHWIRQPPGKGLEWIGVIWTSGVTDYNSALMGRVTISVDTSKNQFSLKLSSVTAADTAVYYCARDGDYDRYTMDYWGQGTLVTVSS VL: DIVMTQSPDSLAVSLGERATINCRASKSVSTSGYSYMHWYQQKPGQPPKLLIYLASNLESGVPDRFSGSGSGTDFTLTISSLQAEDVAVYYCQHSRELPYTFGQGTKLEIK",binds
2,"MYT11706 (antibody, V domains shown, hu7E6SVG variant, His at HCV position 27 (H1 02); screened as IgG in Expi293 supernatant) VH: QVQLQESGPGLVKPSETLSLTCTVSGHSISSYGVHWIRQPPGKGLEWIGVIWTSGVTDYNSALMGRVTISVDTSKNQFSLKLSSVTAADTAVYYCARDGDYDRYTMDYWGQGTLVTVSS VL: DIVMTQSPDSLAVSLGERATINCRASKSVSTSGYSYMHWYQQKPGQPPKLLIYLASNLESGVPDRFSGSGSGTDFTLTISSLQAEDVAVYYCQHSRELPYTFGQGTKLEIK",binds
3,"MYT11707 (antibody, V domains shown, hu7E6SVG variant, His at HCV position 28 (H1 03); screened as IgG in Expi293 supernatant) VH: QVQLQESGPGLVKPSETLSLTCTVSGGHISSYGVHWIRQPPGKGLEWIGVIWTSGVTDYNSALMGRVTISVDTSKNQFSLKLSSVTAADTAVYYCARDGDYDRYTMDYWGQGTLVTVSS VL: DIVMTQSPDSLAVSLGERATINCRASKSVSTSGYSYMHWYQQKPGQPPKLLIYLASNLESGVPDRFSGSGSGTDFTLTISSLQAEDVAVYYCQHSRELPYTFGQGTKLEIK",binds
4,"MYT11708 (antibody, V domains shown, hu7E6SVG variant, His at HCV position 29 (H1 04); screened as IgG in Expi293 supernatant) VH: QVQLQESGPGLVKPSETLSLTCTVSGGSHSSYGVHWIRQPPGKGLEWIGVIWTSGVTDYNSALMGRVTISVDTSKNQFSLKLSSVTAADTAVYYCARDGDYDRYTMDYWGQGTLVTVSS VL: DIVMTQSPDSLAVSLGERATINCRASKSVSTSGYSYMHWYQQKPGQPPKLLIYLASNLESGVPDRFSGSGSGTDFTLTISSLQAEDVAVYYCQHSRELPYTFGQGTKLEIK",binds
5,"MYT11709 (antibody, V domains shown, hu7E6SVG variant, His at HCV position 30 (H1 05); screened as IgG in Expi293 supernatant) VH: QVQLQESGPGLVKPSETLSLTCTVSGGSIHSYGVHWIRQPPGKGLEWIGVIWTSGVTDYNSALMGRVTISVDTSKNQFSLKLSSVTAADTAVYYCARDGDYDRYTMDYWGQGTLVTVSS VL: DIVMTQSPDSLAVSLGERATINCRASKSVSTSGYSYMHWYQQKPGQPPKLLIYLASNLESGVPDRFSGSGSGTDFTLTISSLQAEDVAVYYCQHSRELPYTFGQGTKLEIK",binds
6,"MYT11710 (antibody, V domains shown, hu7E6SVG variant, His at HCV position 31 (H1 06); screened as IgG in Expi293 supernatant) VH: QVQLQESGPGLVKPSETLSLTCTVSGGSISHYGVHWIRQPPGKGLEWIGVIWTSGVTDYNSALMGRVTISVDTSKNQFSLKLSSVTAADTAVYYCARDGDYDRYTMDYWGQGTLVTVSS VL: DIVMTQSPDSLAVSLGERATINCRASKSVSTSGYSYMHWYQQKPGQPPKLLIYLASNLESGVPDRFSGSGSGTDFTLTISSLQAEDVAVYYCQHSRELPYTFGQGTKLEIK",binds
